B1: DF202 (designed binder)
chain: NTHFIVVHGTEEARQLAEEIVRLIAEALGTEVRFEKKDGLLSIEVKNLPEEAQRLIQKLLQLAVRIAQAAKSGDNDQLRELAEDALRLAKEAEKLGDLGAAAVAARLAVEAAKQAGDNDVLRKVAEQALRIAKEAEKQGLVDVAVEAARVAVEAAKQAGDNDVLRKVAEQALRIAKEAEKQGNVEVAVKAARVAVEAAKQAGDNDVLRKVAEQALRIVREALKQGNKEVAKKALEVAIEAANQAGDQKLLAEILLLAIEVLVVEMGVTMETHKSGNKVKVVIKGLHESQQETLRKLVHELLRKLGVVAVTQKHGDTVTIYVTEGGSHHWGSGSHHHHHH
notes: Bivalent connector
B3: DFA0 (designed binder)
chain: TTNFHLINGSEEARQLIEKAVRAISKKEGTEVHFEKSDGTLEIRVKNLHEKREREIKKVIELILEVAAAERIVRERPGSNLAKKALEIILRAAEELAKADVDAALEAAVRAAEKVVREQPGSNLAKKALEIILRAAEELAKLPDPEALKEAVKAAEKVVREQPGSNLAKKALEIILRAAEELAKLPDPEALKEAVKAAEKVVREQPGSNLAKKALEIILRAAAALANLPDPESRKEADKAADKVRREQPGSELAVVAAIISAVARMGVKMELHPSGNEVKVVIKGLHIKQQRQLYRDVREAAKKAGVEVEIEVEGDTVTIVVRGGSHHWGSGSHHHHHH
notes: Bivalent connector

Tests used:
[1] = biological target: B3; experiment: SEC of mixed components; trimer listed in Table 6
[2] = biological target: T1, 202B57; experiment: SEC of mixed components; linear tetramer listed in Table 6, neighbours in the chain
T1 chain: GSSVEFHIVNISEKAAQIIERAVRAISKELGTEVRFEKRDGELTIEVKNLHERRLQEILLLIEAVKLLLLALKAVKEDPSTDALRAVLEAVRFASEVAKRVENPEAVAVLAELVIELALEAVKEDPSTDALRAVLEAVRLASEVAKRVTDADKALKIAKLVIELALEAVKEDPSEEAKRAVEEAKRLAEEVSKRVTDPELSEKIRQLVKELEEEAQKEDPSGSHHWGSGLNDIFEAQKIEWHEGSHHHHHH
Procedure: (§1) Complexes and individual components were diluted in 20 mM Tris pH 8.0, 100 mM NaCl. After o/n equilibration of the mixtures at room temperature or 4 degrees C., 500 ul of sample was injected onto a Superdex™ 200 10/300 increase GL (dimers, linear assemblies) or Superose™ 6 increase 10/300 GL (symmetric assemblies) (all columns from GE healthcare) using the absorbance at 230 nm or 473 nm (for GFP tagged components) as read-out. Dimers were mixed at monomer concentrations of 5 μM or higher. Trimer and ABCD tetramer mixtures contained 5 μM of the bivalent connector, and 7.5 μM of each terminal cap (lower absolute concentrations with the same ratios were used for some trimers). ABCA tetramer mixtures contained 5 μM per bivalent connector and 15 μM terminal cap. The hexamer mixture contained 3 μM of components C and D, 3.6 μM of B and E, and 4.4 μM of A and F. The branched assembly shown in FIG. 4A contained 2.8 μM of the trivalent connector and 4 μM of each cap. For the exchange experiment shown in FIG. 5A, the ABC trimer was preincubated at concentrations of 6 μM B and 9 μM each of A and C. C′ was then added to reach a final concentration of 2 μM B, 3 μM each of A and C, and 6 μM C′.

[3] = biological target: T2, DF284B; experiment: SEC of mixed components; trimer listed in Table 6
T2 construct: Bivalent connector
T2 chain: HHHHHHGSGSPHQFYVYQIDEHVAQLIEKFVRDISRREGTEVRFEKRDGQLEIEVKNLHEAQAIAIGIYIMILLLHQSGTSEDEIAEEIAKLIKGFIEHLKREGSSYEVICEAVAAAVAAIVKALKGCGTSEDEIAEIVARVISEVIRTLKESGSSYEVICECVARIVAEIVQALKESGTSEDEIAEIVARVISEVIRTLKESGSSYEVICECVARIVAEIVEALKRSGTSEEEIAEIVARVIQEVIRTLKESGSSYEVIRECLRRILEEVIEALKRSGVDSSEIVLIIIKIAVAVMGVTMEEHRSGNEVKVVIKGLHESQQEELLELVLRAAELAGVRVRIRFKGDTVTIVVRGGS

[4] = biological target: T3, LHD101 B8; experiment: SEC binding assay (Superdex 200, normalised A230) of A, B and the mixture AB
T3 single chain, LHD101 chain B fused to DHR8: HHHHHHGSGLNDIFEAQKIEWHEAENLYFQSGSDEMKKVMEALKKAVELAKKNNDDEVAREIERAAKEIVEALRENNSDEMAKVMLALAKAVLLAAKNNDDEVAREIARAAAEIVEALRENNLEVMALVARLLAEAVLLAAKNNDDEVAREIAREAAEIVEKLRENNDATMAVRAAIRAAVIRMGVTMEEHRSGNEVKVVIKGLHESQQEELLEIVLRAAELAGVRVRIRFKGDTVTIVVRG

[5] = biological target: T4, 101B14; experiment: as above
T4 construct: also called LHD101 B14
T4 single chain, LHD101 chain B fused to DHR14: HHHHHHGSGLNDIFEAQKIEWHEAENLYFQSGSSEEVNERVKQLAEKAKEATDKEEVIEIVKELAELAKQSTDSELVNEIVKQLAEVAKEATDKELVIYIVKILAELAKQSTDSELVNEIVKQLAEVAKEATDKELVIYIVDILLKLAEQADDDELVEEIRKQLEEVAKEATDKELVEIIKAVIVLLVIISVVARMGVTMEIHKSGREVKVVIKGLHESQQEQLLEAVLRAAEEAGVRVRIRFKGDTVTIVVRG

[6] = biological target: T5, 101B62; experiment: as above
T5 construct: also called LHD101B62
T5 chain: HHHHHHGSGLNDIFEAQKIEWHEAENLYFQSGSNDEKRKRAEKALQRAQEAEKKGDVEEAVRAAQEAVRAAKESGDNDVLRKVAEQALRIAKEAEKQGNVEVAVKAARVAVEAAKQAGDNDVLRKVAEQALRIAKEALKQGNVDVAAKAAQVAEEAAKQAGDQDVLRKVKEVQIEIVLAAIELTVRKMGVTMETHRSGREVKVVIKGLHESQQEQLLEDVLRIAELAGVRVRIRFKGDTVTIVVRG

[7] = biological target: T6, 101B82; experiment: as above
T6 chain: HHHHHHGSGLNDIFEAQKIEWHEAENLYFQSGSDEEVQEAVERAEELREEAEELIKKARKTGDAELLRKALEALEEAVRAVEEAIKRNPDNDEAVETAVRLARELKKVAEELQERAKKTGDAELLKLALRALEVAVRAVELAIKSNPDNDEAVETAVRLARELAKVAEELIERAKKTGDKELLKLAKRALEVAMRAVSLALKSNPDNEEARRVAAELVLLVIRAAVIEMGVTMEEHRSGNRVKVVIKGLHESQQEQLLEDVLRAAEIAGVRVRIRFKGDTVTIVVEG

[8] = biological target: the molecule itself; experiment: SEC titration of the protomer alone at several injection concentrations (Superdex 200, normalised A230); self-association
[9] = biological target: B1; experiment: SEC of mixed components; trimer listed in Table 6
[10] = biological target: T7, DFB0; experiment: SEC of mixed components; linear tetramer listed in Table 6, neighbours in the chain
T7 construct: Bivalent connector
T7 chain: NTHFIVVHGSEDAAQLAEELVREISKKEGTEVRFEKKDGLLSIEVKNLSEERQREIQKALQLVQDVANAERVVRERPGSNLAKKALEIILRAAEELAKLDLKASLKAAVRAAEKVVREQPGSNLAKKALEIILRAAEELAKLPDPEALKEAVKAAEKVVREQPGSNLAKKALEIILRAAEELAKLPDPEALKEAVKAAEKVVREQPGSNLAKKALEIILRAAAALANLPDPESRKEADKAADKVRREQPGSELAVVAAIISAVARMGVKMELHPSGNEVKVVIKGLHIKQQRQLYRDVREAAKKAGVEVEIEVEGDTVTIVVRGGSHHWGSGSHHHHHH
Procedure: as §1

[11] = biological target: T8, DFB-1; experiment: as above
T8 construct: Bivalent connector
T8 chain: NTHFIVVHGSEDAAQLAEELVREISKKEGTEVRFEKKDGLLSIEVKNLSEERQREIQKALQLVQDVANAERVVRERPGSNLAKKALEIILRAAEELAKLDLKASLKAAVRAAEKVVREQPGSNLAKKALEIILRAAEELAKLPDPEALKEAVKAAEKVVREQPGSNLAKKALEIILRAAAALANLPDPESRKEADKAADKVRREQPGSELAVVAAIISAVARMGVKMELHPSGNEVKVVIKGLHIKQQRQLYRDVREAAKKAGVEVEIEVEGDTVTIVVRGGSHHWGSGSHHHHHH
Procedure: as §1

[12] = biological target: T9, DF206; experiment: SEC of mixed components; tetramer (control pentamer) listed in Table 6, neighbours in the chain
T9 construct: Bivalent connector
T9 chain: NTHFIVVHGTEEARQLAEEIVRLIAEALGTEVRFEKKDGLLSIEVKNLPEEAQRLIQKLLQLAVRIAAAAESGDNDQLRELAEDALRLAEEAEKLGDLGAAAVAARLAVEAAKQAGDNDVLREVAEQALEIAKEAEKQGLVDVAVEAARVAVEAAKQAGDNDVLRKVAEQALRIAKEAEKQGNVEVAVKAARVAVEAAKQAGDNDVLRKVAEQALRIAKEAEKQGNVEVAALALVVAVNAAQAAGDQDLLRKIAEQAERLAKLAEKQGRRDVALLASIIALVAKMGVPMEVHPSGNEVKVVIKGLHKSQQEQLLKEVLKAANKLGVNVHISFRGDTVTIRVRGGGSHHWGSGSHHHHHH
Procedure: as §1

[13] = biological target: T10, LHD206 chainB; experiment: BLI, steady state fit
T10 construct: also called LHD206B
T10 chain: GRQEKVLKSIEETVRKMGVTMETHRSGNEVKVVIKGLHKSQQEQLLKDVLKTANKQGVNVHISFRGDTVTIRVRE
Procedure: (§2) Biolayer interferometry experiments were performed on an OctetRED96 BLI system (ForteBio, Menlo Park, CA). Streptavidin coated biosensors were first equilibrated for at least 10 minutes in Octet buffer (10 mM HEPES pH 7.4, 150 mM NaCl, 3 mM EDTA, 0.05% Surfactant P20) supplemented with 1 mg/ml Bovine Serum Albumin (SigmaAldrich). Enzymatically biotinylated designs were immobilized onto the biosensors by dipping the biosensors into a solution with 10-50 nM protein for 30-120 s. This was followed by dipping in fresh octet buffer to establish a baseline for 120 s. Titration experiments were performed at 25° C. while rotating at 1,000 r.p.m. Association of designs was allowed by dipping biosensors in solutions containing designed protein diluted in octet buffer until equilibrium was approached followed by dissociation by dipping the biosensors into fresh buffer solution in order to monitor the dissociation kinetics. Steady-state and global kinetic fits were performed using the manufacturer's software (Data Analysis 9.1) assuming a 1:1 binding model.

[14] = biological target: T10, LHD206 chainB; experiment: BLI, global kinetic fit, 1:1 model
Procedure: as §2

B1
binding result [1]: binds
binding result [2]: binds

B2: 101A53 (designed binder)
chain: HHHHHHGSGLNDIFEAQKIEWHEAENLYFQSGSNDEKEKLKELLKRAEELAKSPDPEDLKEAVRLAEEVVRERPGSNLAKKALEIILRAAEELAKLPDPEALKEAVKAAEKVVREQPGSNLAKKALEIILRAAAALANLPDPESRKEADKAADKVRREQPGSELAVVAAIISAVARMGVKMELHPSGNEVKVVIKGLHIKQQRQLYRDVREAAKKAGVEVEIEVEGDTVTIVVRG
notes: also called LHD101A53
binding result [3]: binds
binding result [4]: binds
binding result [5]: binds
binding result [6]: binds
binding result [7]: binds
binding result [8]: no binding

B3
binding result [9]: binds
binding result [10]: binds
binding result [11]: binds
binding result [12]: binds

B4: LHD206 chainA (designed binder)
chain: TDELLERLRQLFEELHERGTEIVVEVHINGRKTEIEVQGIDKRLLKIILEVIREEIEREGSSEVEVNVHSGGQTWTFNEK
notes: also called LHD206A
Kd [13]: 8.4 nM
Kd [14]: 2.8 nM
koff [14]: 0.00075 s⁻¹
kon [14]: 270000 M⁻¹ s⁻¹
